Data on two compounds can be found in patent publication US9580487B2, “Method of treating stomach or bowel-related disorders by administering glucagon-like-peptide-2 (GLP-2) analogues” (Zealand Pharma A/S, priority 2005, dated 2017).

For data set [1] the following is noted: in vivo; cited from earlier work.
Data set [2] deals with colonic neoplasms in mice. The conditions noted are these: cited from earlier work.
Data set [3] concerns male Sprague Dawley rats treated with indomethacin. The data set is described as follows: Indomethacin-induced small intestinal ulcers (model of Crohn's disease), extent of ulceration. Format: in vivo. Particulars: prednisolone 10 mg/kg vs indomethacin alone. The protocol: FIG. 13 is a graph illustrating the effect of compound 1848 (SEQ ID NO:36) on small intestinal ulcers induced by indomethacin. Male Sprague Dawley rats were treated with vehicle (saline; group 1) or indomethacin (7 mg/kg s.c., once daily for two days; groups 2-7). Indomethacin was given alone (group 2) or in combination with prednisolone (10 mg/kg s.c.; group 3) or with 8, 40, or 200 nmol/kg compound 1848 (SEQ ID NO:36) s.c. […] (groups 4-6). Finally, one group of rats was treated with combination treatment of prednisolone (10 mg/kg s.c.) and compound 1848 (SEQ ID NO:36), 200 nmol/kg s.c. once daily (group 7). Treatment with compound 1848 (SEQ ID NO:36) was initiated 4 days prior to indomethacin and continued during the two days of indomethacin treatment. On day 3, rats were sacrificed and upon necropsy, the small intestine was gently flushed with 10% formalin and filled with formalin for a period of 5 minutes, after which the intestine was cut open along the antimesenteric margin and suspended on a polypropylene plate. Any remaining intestinal contents were carefully removed with a pair of tweezers. After fixation for another 24 hours at room temperature, the tissue was rinsed in Milli-Q water and surface-stained for 20 minutes with Alcian Green 3BX (Chroma) prepared as a 0.5% solution in 1% acetic acid (Bie & Berntsen). After removal of excess staining solution with Milli-Q water the tissue preparation was transferred to 70% alcohol and analyzed using a stereomicroscope at low magnification (×7). Starting at the pylorus, the small intestine was scanned and the shape (circular vs. linear) and size (circular ulcers: diameter, linear ulcers: length×width) of all ulcers was measured using a standard ruler (resolution: 0.5 mm). An ulcer was defined as an area, which lacked epithelial surface. In healing ulcers only the area that still lacked epithelial surface was regarded an ulcer even if the villus structure was still missing in a larger area. All analysis was performed in a blinded manner. […] Treatment with prednisolone caused a significant reduction in the extent of ulceration by app. 29%. […] Values are means±SEM. * P<0.05 vs. indomethacin (group 2). ^#P<0.05 vs. prednisolone (group 3).
Crohn's disease is a chronic disease that causes episodic inflammation of the small intestine. The effect of the GLP-2 analogue 1848 (SEQ ID NO:36) on small intestinal inflammation in an indomethacin-induced model of Crohn's disease was investigated. We have previously shown that administration of indomethacin (s.c, once daily for 2 days) induces small intestinal inflammation characterized by ulcerations and, increases in the pro-inflammatory cytokine, tumour necrosis factor alpha (TNF-α).
To determine the effect of ZP1848 (SEQ ID NO:36) on ulceration 1848 (SEQ ID NO:36) (8, 40 and 200 nmol/kg, s.c, twice daily (9:00 and 16:00)) was given for 4 days prior to the first dose of indomethacin and for an additional two days together with indomethacin. The corticosteroid, prednisolone (10 mg/kg, p.o) was used as a positive control since corticosteroids are commonly used in the treatment of active inflammation in Crohn's disease. In addition a group of animals were given both 1848 (SEQ ID NO:36) (200 nmol/kg) and prednisolone to determine the effects of a combination treatment. Twenty four hours after the last dose of 1848 (SEQ ID NO:36) had been given the animals were sacrificed the small intestine was gently flushed clean and fixed. To determine the extent of ulceration the intestine was cut open along the antimesenteric margin, suspended on a polypropylene plate and surface-stained with Alcian Green 3BX. Starting at the pylorus, the small intestine was scanned and the shape (circular vs. linear) and size (circular ulcers: diameter, linear ulcers: length×width) of all ulcers was measured using a standard ruler (resolution: 0.5 mm). An ulcer was defined as an area, which lacked epithelial surface. […]

The subject of another data set is TNF-α. The data set is described as follows: Small intestinal tissue content of TNF-α (ELISA) in rats with indomethacin-induced inflammation. Format: in vivo. Particulars: prednisolone 10 mg/kg alone. The protocol: Male Sprague Dawley rats were treated with vehicle (saline; group 1) or indomethacin (7 mg/kg s.c., once daily for two days; groups 2-7). […] On day 3, rats were sacrificed and upon necropsy, the small intestine was divided into three segments of equal length corresponding to 1) duodenum and proximal jejunum, 2) mid and distal jejunum and 3) ileum. Samples were immediately snap-frozen in liquid N2 and stored at −80° C. until analysis. Homogenization and extraction of cellular protein from small intestinal segments was performed according to the following procedure: Tissue segments were weighed and added a volume of 1.5 ml per gram tissue ice-cold (4° C.) extraction buffer (10 mM Tris-HCl (Sigma) and 1 mM EDTA (J. T. Baker), (pH 7.6) with 0.05% sodium azide (Fluka), 1% Tween-80 (Fluka), 2 mM phenylmethylsulfonyl fluoride (PMSF, Fluka) and 1 μg/ml of each of the protease inhibitors aprotinin, leupeptin and pepstatin A (Roche Diagnostics)). The tissue was cut into small bits with a pair of scissors and homogenized three times for 20 seconds (IKA UltraTurrax T25 homogenizer, Janke & Kunkel) at 9500 rpm with intermittent cooling on ice for 30 seconds. The homogenate was centrifuged at 20.000×g for 30 minutes at 4° C., the supernatant was collected and stored at −20° C. until analysis for TNF-α small intestinal protein extractions were analyzed for TNF-α using a commercially available ELISA kit according to the manufacturer's instructions (Rat Tumor Necrosis Factor-α UltraSensitive ELISA kit, Biosource International Inc.). The assay has a detection limit of 0.7 pg/ml. Protein extractions were analyzed for total protein content using a commercially available assay (DC protein assay, Bio-Rad Laboratories Ltd.). Small intestinal tissue levels of TNF-α were expressed relative to total protein. […] Values are means±SEM. * P<0.05 vs. indomethacin (group 2).
At sacrifice, however the small intestine was separated into three segments of equal length (proximal, mid and distal). TNF-α concentrations were measured in each of the individual segments using a commercially available ELISA kit.

On to “H-His-Ala-Asp-Gly-Ser-Phe-Ser-Asp-Glu-Met-Asn-Thr-Ile-Leu-Asp-Asn-Leu-Ala-Ala-Arg-Asp-Phe-Ile-Asn-Trp-Leu-Ile-Gln-Thr-Lys-Ile-Thr-Asp-OH [GLP-2]”, for which the half life entry in data set [1] was “about 7 minutes”. Moreover, the “Growth of colonic neoplasms” value in data set [2] was “accelerate the growth of colonic neoplasms in mice”.

For the compound `C[C@]12C=CC(=O)C=C1CC[C@@H]1[C@@H]2[C@@H](O)C[C@@]2(C)[C@H]1CC[C@]2(O)C(=O)CO` [prednisolone, reference compound], in data set [3], the “Reduction in the extent of ulceration” value is recorded as approximately 29%. The “Tissue levels of TNF-α, all 3 segments” value in the data set on TNF-α was “did not significantly affect tissue levels of TNF-α”.
